Where no end group is shown, it is not given here.
Tests used:
[1] = target: α9α10 acetylcholine receptor (Homo sapiens, UniProt Q9GZZ6+Q9UGM1); details: read-out: half-blocking dose IC50; cited from earlier work
[2] = target: α3β4 acetylcholine receptor; details: read-out: half-blocking dose IC50; cited from earlier work
[3] = target: α7 acetylcholine receptor (Homo sapiens, UniProt P36544); details: read-out: half-blocking dose IC50; cited from earlier work
[4] = target: α3β2 acetylcholine receptor (Homo sapiens, UniProt P17787+P32297); details: read-out: half-blocking dose IC50; cited from earlier work
Sequence of α3β2 acetylcholine receptor (P32297 32-505 limits assumed): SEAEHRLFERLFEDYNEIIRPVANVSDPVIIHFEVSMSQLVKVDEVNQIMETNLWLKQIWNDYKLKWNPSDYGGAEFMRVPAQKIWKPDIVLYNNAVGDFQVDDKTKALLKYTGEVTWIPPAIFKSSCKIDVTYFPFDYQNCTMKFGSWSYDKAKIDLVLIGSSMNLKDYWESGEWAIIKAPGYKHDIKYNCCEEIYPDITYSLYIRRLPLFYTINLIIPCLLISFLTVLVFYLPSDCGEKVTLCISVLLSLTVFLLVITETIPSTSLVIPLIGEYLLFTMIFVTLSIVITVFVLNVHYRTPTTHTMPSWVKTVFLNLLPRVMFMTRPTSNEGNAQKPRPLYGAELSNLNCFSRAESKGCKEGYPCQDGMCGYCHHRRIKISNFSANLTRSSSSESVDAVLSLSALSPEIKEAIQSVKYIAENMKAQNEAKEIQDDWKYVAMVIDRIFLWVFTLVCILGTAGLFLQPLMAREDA
Sequence of α3β2 acetylcholine receptor (P17787 26-502 limits assumed): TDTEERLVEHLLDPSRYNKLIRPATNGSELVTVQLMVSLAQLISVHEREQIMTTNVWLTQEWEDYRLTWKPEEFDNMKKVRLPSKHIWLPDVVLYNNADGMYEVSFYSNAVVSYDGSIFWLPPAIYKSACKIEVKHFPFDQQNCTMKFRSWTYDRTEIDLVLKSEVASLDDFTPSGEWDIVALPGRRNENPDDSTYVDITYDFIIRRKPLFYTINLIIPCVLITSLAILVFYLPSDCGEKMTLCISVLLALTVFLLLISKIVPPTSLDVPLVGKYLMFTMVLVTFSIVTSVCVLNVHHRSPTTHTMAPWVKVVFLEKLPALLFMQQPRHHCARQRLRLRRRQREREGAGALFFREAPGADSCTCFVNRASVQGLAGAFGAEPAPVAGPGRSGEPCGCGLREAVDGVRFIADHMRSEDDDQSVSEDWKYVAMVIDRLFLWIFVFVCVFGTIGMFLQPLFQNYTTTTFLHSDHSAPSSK

nAChRs = details: cited from earlier work
[5] = target: α6/α3β2β3 acetylcholine receptor; details: read-out: half-blocking dose IC50; cited from earlier work
[6] = target: α6/α3β4 acetylcholine receptor; details: read-out: half-blocking dose IC50; cited from earlier work
[7] = target: rat α6/α3β2β3 nAChR (rat) (UniProt P12390)
rat α6/α3β4 nAChR (rat) = rat α6/α3β4 nAChR (rat) (UniProt P12392)
rat α4β2 nAChR = rat α4β2 nAChR (rat, UniProt P09483); assay: cell-based or functional assay
rat α4β4 nAChR = rat α4β4 nAChR (rat, UniProt P09483); assay: cell-based or functional assay
rat α7 nAChR = rat α7 nAChR (rat, UniProt Q05941); assay: cell-based or functional assay
rat α3β4 nAChR = rat α3β4 nAChR (rat, UniProt P04757); assay: cell-based or functional assay
rat α3β2 nAChR = rat α3β2 nAChR (rat, UniProt P04757); assay: cell-based or functional assay
rat α2β4 nAChR = rat α2β4 nAChR (rat, UniProt P12389); assay: cell-based or functional assay
rat α9α10 nAChR = rat α9α10 nAChR (rat, UniProt P43144); assay: cell-based or functional assay
rat α2β2 nAChR = rat α2β2 nAChR (rat, UniProt P12389); assay: cell-based or functional assay

Sequence of α9α10 acetylcholine receptor (Q9UGM1 26-479 limits assumed): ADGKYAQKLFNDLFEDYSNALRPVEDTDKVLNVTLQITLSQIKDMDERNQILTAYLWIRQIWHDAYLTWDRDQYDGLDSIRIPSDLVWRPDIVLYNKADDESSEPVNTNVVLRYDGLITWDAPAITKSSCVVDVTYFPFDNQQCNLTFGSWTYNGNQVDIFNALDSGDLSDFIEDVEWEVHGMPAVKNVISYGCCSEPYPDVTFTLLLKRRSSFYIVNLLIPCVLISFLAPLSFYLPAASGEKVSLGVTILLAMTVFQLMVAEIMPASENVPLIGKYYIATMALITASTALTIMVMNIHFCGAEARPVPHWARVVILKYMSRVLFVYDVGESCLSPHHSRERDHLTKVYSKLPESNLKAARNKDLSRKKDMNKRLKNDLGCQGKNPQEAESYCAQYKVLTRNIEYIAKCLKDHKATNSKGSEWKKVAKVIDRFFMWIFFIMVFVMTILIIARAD
Sequence of α9α10 acetylcholine receptor (Q9GZZ6 25-450 limits assumed): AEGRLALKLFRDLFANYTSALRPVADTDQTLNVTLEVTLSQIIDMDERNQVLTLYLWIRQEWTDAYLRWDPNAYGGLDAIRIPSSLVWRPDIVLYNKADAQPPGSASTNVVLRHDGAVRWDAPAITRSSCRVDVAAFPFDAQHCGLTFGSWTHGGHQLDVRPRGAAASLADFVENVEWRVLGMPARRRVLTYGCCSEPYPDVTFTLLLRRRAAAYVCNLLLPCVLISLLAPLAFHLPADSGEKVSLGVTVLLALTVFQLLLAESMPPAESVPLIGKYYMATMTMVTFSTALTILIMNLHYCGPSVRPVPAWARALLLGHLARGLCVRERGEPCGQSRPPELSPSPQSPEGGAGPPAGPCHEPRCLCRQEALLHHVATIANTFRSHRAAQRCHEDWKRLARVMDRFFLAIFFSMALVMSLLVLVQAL
Sequence of α7 acetylcholine receptor (P36544 23-502 limits assumed): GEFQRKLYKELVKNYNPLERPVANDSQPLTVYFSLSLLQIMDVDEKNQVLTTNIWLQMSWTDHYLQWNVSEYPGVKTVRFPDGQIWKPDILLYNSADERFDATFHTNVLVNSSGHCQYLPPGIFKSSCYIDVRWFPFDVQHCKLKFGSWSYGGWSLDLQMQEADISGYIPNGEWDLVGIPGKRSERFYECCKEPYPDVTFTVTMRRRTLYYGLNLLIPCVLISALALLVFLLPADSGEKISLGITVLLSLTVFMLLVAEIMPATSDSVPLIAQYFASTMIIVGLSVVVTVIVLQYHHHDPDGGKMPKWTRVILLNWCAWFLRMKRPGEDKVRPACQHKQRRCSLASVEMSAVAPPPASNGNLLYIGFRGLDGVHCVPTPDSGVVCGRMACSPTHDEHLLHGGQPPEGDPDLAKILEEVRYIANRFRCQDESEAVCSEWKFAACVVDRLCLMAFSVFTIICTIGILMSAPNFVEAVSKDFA

Molecule: GCCSHPACSVNHPELC* [PeIA]
- IC50 [1]: 6.9 to 54.9 nM
- IC50 [2]: 480 nM
- IC50 [3]: 1800 nM
- IC50 [4]: 23 to 97.5 nM

Molecule: GCCSYPPCFATNP-DC* [AuIB]
- IC50 [2]: 750 nM

Molecule: NGRCC-HPACGKHFN--C* [Ac1.1a]
- nAChRs selectivity (nAChRs): Muscle nAChR

Molecule: RDPCCSNPVCTVHNPQIC* [PIA]
- IC50 [2]: 518 nM
- IC50 [5]: 1 to 1.7 nM
- IC50 [6]: 12.6 to 30.5 nM
- IC50 [4]: 74.2 nM

Molecule: RTCCSRPTCRMEYPELC*grr [SrIA/SrIB]
- nAChRs selectivity (nAChRs): Muscle nAChR/α4β2

Molecule: GCCSDPPCRNKHPDLC (not fully specified; ends and bridges not checked) [α-conotoxin TxIB/Txd4]
- IC50 (half-blocking dose) on ACh-gated current [7]: 28.4 nM
- IC50 (half-blocking dose) on ACh-gated current (rat α6/α3β4 nAChR (rat)): > 10000 nM
- IC50 (half-blocking dose) on ACh-gated current (rat α4β2 nAChR): > 10000 nM
- IC50 (half-blocking dose) on ACh-gated current (rat α4β4 nAChR): > 10000 nM
- IC50 (half-blocking dose) on ACh-gated current (rat α7 nAChR): > 10000 nM
- IC50 (half-blocking dose) on ACh-gated current (rat α3β4 nAChR): > 10000 nM
- IC50 (half-blocking dose) on ACh-gated current (rat α3β2 nAChR): > 10000 nM
- IC50 (half-blocking dose) on ACh-gated current (rat α2β4 nAChR): > 10000 nM
- IC50 (half-blocking dose) on ACh-gated current (rat α9α10 nAChR): > 10000 nM
- IC50 (half-blocking dose) on ACh-gated current (rat α2β2 nAChR): > 10000 nM

Molecule: GCCSDPPCRNKHPDLCG (not fully specified; ends and bridges not checked) [α-conotoxin TxIB/Txd4(G)]
- IC50 (half-blocking dose) on ACh-gated current [7]: 247 nM
- IC50 (half-blocking dose) on ACh-gated current (rat α6/α3β4 nAChR (rat)): > 10000 nM
- IC50 (half-blocking dose) on ACh-gated current (rat α4β2 nAChR): > 10000 nM
- IC50 (half-blocking dose) on ACh-gated current (rat α4β4 nAChR): > 10000 nM
- IC50 (half-blocking dose) on ACh-gated current (rat α7 nAChR): > 10000 nM
- IC50 (half-blocking dose) on ACh-gated current (rat α3β4 nAChR): > 10000 nM
- IC50 (half-blocking dose) on ACh-gated current (rat α3β2 nAChR): > 10000 nM
- IC50 (half-blocking dose) on ACh-gated current (rat α2β4 nAChR): > 10000 nM
- IC50 (half-blocking dose) on ACh-gated current (rat α9α10 nAChR): > 10000 nM
- IC50 (half-blocking dose) on ACh-gated current (rat α2β2 nAChR): > 10000 nM
